Assay results taken from article PMC8891188 (Clinical Pharmacokinetics, 2021).
Read-outs that look alike come from different tables or passages of the source.

Tests used:
[1] = simulation of the previous study by Rüppel et al.; cited from earlier work
[2] = cited from earlier work
[3] = 10 U SC; Howey et al.; cited from earlier work
[4] = system: persons with type 1 diabetes mellitus; assay: Euglycemic clamp pharmacodynamics; assay type: in vivo, human
[5] = Serum insulin pharmacokinetics during euglycemic clamp; assay type: in vivo, human
[6] = across doses, TI inhaled, LIS SC
[7] = mean (SD) of n = 5 PK profiles selected for comparable AUClast, SD

In the case of “RHI: regular human insulin, given intravenously or subcutaneously in cited studies”, the “ED50, Emax model of predicted GIR AUC vs D” value [1] is given as 48 U, the “Time to maximum concentration (Cmax) of insulin” value ([2]; IV, after the start of administration) is given as 5 min and the “Time to maximum concentration (Cmax) of insulin” value ([2]; SC, after administration) is given as 121 min. The MRT [3] was 3.92 h.

In the case of “[Lys(B28), Pro(B29)]-human insulin [LIS]”, the “Geometric mean dose-normalized effect, GIR AUC/D” value [4, 6] is reported as 66.2 mg/kg/U, the “γ, model of GIRmax vs Cmax (common value)” value ([4]; common to TI and LIS, estimate (standard error), SEM) is reported as 1.37 (0.19) and the “Total effect (GIR AUC) at comparable low insulin exposure” value ([4]; n = 5 profiles per treatment, AUClast about 6537 min∙µU/mL) is reported as 899 mg/kg. For the same substance, the “Exponent of dose dependence of tGIRend (tGIRend ~ D^x)” value ([4]; power-law fit, log-transformed variables) was roughly 0.282, the MRT [3] was 1.68 h and the “Insulin exposure estimated from the linear regression equations” value ([5]; 10-U dose of LIS SC, regression equations in the ESM) was 8152 min µU/mL. For the same substance, the “Geometric mean dose-normalized insulin exposure (AUClast/D) across doses” value [5, 6] was 883 min·µU/mL/U, the “Estimated MRT at the same insulin exposure” value ([5]; insulin exposure of 8152 min µU/mL, regression equations) was 1.97 h and the “AUClast of profiles at the high end of the common exposure range” value [5, 7] was 61,371 (9082) min∙µU/mL. The “AUClast of profiles at the low end of the common exposure range” value [5, 7] was 6538 (65) min∙µU/mL.
